Article PMC9218516, “SifR is an Rrf2-family quinone sensor associated with catechol iron uptake in Streptococcus pneumoniae D39” (The Journal of Biological Chemistry, 2022)

What was measured:
[1] = target: Streptococcus pneumoniae SifR C84S (Streptococcus pneumoniae D39); experiment: SEC
YhdA (SpYhdA, SPD_1375) = target: T1, YhdA (SpYhdA, SPD_1375) (Streptococcus pneumoniae, UniProt A0A0H2ZRU6); experiment: ferric reductase, ferrozine capture at […] nm; format: biochemical; conditions: 10 uM FMN, 100 uM Fe(III)-NTA, 100 uM NADH or NADPH, pH 7.5, 25 C
T1 construct: pHis.parallel1, E. coli BL21(DE3); His6 tag removed with TEV protease

[2] = target: Streptococcus pneumoniae SifR (streptococcal IscR-like family transcriptional repressor), WT (Streptococcus pneumoniae D39); experiment: SEC
[3] = target: Streptococcus pneumoniae SifR C102S (Streptococcus pneumoniae D39); experiment: SEC
SifR (SpSifR, SPD_1448) = target: T2, SifR (SpSifR, SPD_1448) (Streptococcus pneumoniae, UniProt A0A0H2ZNG7); experiment: LC-ESI-MS and tandem LC-MS/MS adduct; fluorescence anisotropy DNA release; format: binding; conditions: covalent at C102, slower than BQ, mainly monoadduct; 20-fold excess, 1 h, pH 7.5
T2 construct: pHis.parallel1, E. coli BL21(DE3); His6 tag removed with TEV protease; homodimer; about 16 kDa protomer (BQ2-SifR expected 16,227 Da)

CatE (SpCatE, SPD_0072) [4] = target: T3, CatE (SpCatE, SPD_0072) (Streptococcus pneumoniae, UniProt A0A0H2ZQ49); experiment: UV-Vis and MS of ring-cleavage product; format: biochemical; conditions: 5 uM Fe(II)-CatE, 100 uM substrate, ambient O2, pH 7.4, room temperature
T3 construct: pHis.parallel1, E. coli BL21(DE3); His6 tag removed with TEV protease; Fe(II)-reconstituted

CatE (SpCatE, SPD_0072) [5] = target: T3, CatE (SpCatE, SPD_0072); experiment: UV-Vis at […] nm and MS of ring-cleavage product; format: biochemical; conditions: 5 uM Fe(II)-CatE, 100 uM substrate, ambient O2, pH 7.4, room temperature
[6] = target: Streptococcus pneumoniae SifR C84S/C102S (Streptococcus pneumoniae D39); experiment: SEC
SifR WT [7] = target: T4, SifR WT (Streptococcus pneumoniae D39, UniProt A0A0H2ZNG7 1-145); experiment: fluorescence anisotropy competition; reduced, 2 mM TCEP; competitor of F-catE; 25 mM Tris-HCl, 150 mM NaCl, 2 mM EDTA, 2 mM TCEP, pH 7.5, 25 C, ~10 nM labeled DNA (Fig S8: 50 mM Tris-HCl, 150 mM NaCl, pH 7.4, 25 C; NMR: 25 mM MES pH 6.5, 150 mM NaCl, 25 C); conditions: protein: recombinant; tags: His6 removed by TEV; tag-free; chain copies: 2; blunt
SifR WT [8] = target: T4, SifR WT; experiment: fluorescence anisotropy; reduced, 2 mM TCEP; 25 mM Tris-HCl, 150 mM NaCl, 2 mM EDTA, 2 mM TCEP, pH 7.5, 25 C, ~10 nM labeled DNA (Fig S8: 50 mM Tris-HCl, 150 mM NaCl, pH 7.4, 25 C; NMR: 25 mM MES pH 6.5, 150 mM NaCl, 25 C); conditions: protein: recombinant; tags: His6 removed by TEV; tag-free; chain copies: 2; label: 5'-fluorescein; blunt
SifR C84S = SifR C84S (Streptococcus pneumoniae D39, UniProt A0A0H2ZNG7 1-145, C84S); experiment: as above; conditions: protein: recombinant; tags: His6 removed by TEV; tag-free; chain copies: 2; label: 5'-fluorescein; blunt
15N-SifR WT = 15N-SifR WT (Streptococcus pneumoniae D39, UniProt A0A0H2ZNG7 1-145); experiment: NMR (1H,15N-TROSY); reduced; pH 6.5; 25 mM Tris-HCl, 150 mM NaCl, 2 mM EDTA, 2 mM TCEP, pH 7.5, 25 C, ~10 nM labeled DNA (Fig S8: 50 mM Tris-HCl, 150 mM NaCl, pH 7.4, 25 C; NMR: 25 mM MES pH 6.5, 150 mM NaCl, 25 C); conditions: protein: recombinant; tags: His6 removed by TEV; 15N-labeled; chain copies: 2

Streptococcus pneumoniae SifR C84S (natural protein)
stoichiometry N [1]: 2

Cc1cc2nc3c(=O)[nH]c(=O)nc-3n(C[C@H](O)[C@H](O)[C@H](O)COP(=O)(O)O)c2cc1C [FMN]
ferric reductase, ferrozine capture at 562 nm (YhdA (SpYhdA, SPD_1375)): SpYhdA has significant activity and prefers FMN over FAD

Streptococcus pneumoniae SifR (streptococcal IscR-like family transcriptional repressor), WT (natural protein)
stoichiometry N [2]: 2

Streptococcus pneumoniae SifR C102S (natural protein)
stoichiometry N [3]: 2

CN1CC(O)C2=CC(=O)C(=O)C=C21 (stereo not drawn) [Adc, adrenochrome]
LC-ESI-MS and tandem LC-MS/MS adduct; fluorescence anisotropy DNA release (SifR (SpSifR, SPD_1448)): Adc reacts more slowly to yield some monoadducted product

NC[C@H](O)c1ccc(O)c(O)c1 [NE, norepinephrine]
UV-Vis and MS of ring-cleavage product (CatE (SpCatE, SPD_0072) [4]): SpCatE can utilize each of these compounds as substrates

Oc1ccccc1O [catechol]
UV-Vis at 375 nm and MS of ring-cleavage product (CatE (SpCatE, SPD_0072) [5]): we first monitored its activity using UV–Vis spectroscopy against freshly prepared catechol

Streptococcus pneumoniae SifR C84S/C102S (natural protein)
stoichiometry N [6]: 2

B1: trxB O/P (dsDNA)
DNA 1: GAAAGAGTTAGAATAAAGATAGTTACAACAAG
DNA 2: CTTGTTGTAACTATCTTTATTCTAACTCTTTC
Ka (SifR WT [7]): 0.13 ± 0.04 10^8 M-1

B2: F-catE O/P (dsDNA)
DNA 1: TATAGTTGTAATAATAATAATTACAACGAG
DNA 2: CTCGTTGTAATTATTATTATTACAACTATA
modifications: fluorescein-dT at 5' position 1 of strand 1
Ka (SifR WT [8]): 1 ± 0.2 10^8 M-1 | Ka (SifR C84S): 4.8 ± 1.5 10^8 M-1

B3: ywnB O/P (dsDNA)
DNA 1: CAATTGCTGTAACTAAAATAATTACAACAAG
DNA 2: CTTGTTGTAATTATTTTAGTTACAGCAATTG
Ka (SifR WT [7]): 3.2 ± 0.4 10^8 M-1

B4: fre operator 23 bp (dsDNA)
DNA 1: AATGTAACAAATTTATTTACAAC
DNA 2: GTTGTAAATAAATTTGTTACATT
binding result (15N-SifR WT): binds

B5: yhdA O/P (dsDNA)
DNA 1: GTTTTGTTGTAATATATTTTATAACAACGAG
DNA 2: CTCGTTGTTATAAAATATATTACAACAAAAC
Ka (SifR WT [7]): 0.23 ± 0.04 10^8 M-1

B6: fre O/P (dsDNA)
DNA 1: GATAAAATGTAACAAATTTATTTACAACAAATC
DNA 2: GATTTGTTGTAAATAAATTTGTTACATTTTATC
Ka (SifR WT [7]): 0.25 ± 0.05 10^8 M-1
